Reference: the supplement of paper PMC10126150
± gives the standard deviation of the averaged measurements.

Tested on: ATP
Experiment: switch fluorescence ratio, 500 uM ATP over buffer (Cy3 cluster intensity, sum of 5 cycles each) (fold (ratio)); higher = stronger signal-on switching upon ATP binding; sequences stand for … in TCGTCGGCAGCGTCAGATGTGTATAAGAGACAGTTTTTTTTTTTTTTTTTTTTTTTTT…TC
Conditions: aptamer strand: ATP DNA aptamer (quencher-CACCTGGGGGAGTATTGCGGAGGAAGG + anchor), 100 nM annealed; ATP concentration: 500 uM
Summary of the method: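 Cy3-labelled switching-strand clusters on a modified Illumina MiSeq flow-cell were annealed to 100 nM quencher-labelled ATP aptamer and imaged first in selection buffer, then after 15 min with 500 uM ATP at 22 °C. NaOH stripping and re-annealing separated each of five buffer/ATP cycles, and clusters outside 100-1000 RFU were excluded. The fluorescence ratio sums target-cycle Cy3 intensity over buffer-cycle Cy3 intensity per cluster and averages it per switch-domain sequence.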
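Also: ATP exposure 15 min at 22 °C before imaging.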

Sequence	switch fluorescence ratio
AATGAAAGGG	0.988 ± 0.025
AATGAAGAAG	1.17 ± 0.22
AATGAAGCTC	0.966 ± 0.051
AATGAAGGGG	0.987 ± 0.031
AATGAATGCA	1.004 ± 0.0014
AATGAATTCG	1 ± 0.031
AATGACTAAT	1.01 ± 0.017
AATGACTATG	0.976 ± 0.056
AATGAGGGCG	0.9825 ± 0.0018
AATGATAAGC	1.04 ± 0.028
AATGATTAGT	0.998 ± 0.032
AATGATTGAA	0.968 ± 0.023
AATGATTGGA	1.02 ± 0.041
AATGCAGTGC	1.26 ± 0.09
AATGCATCTA	0.989 ± 0.025
AATGCATGGG	0.989 ± 0.046
AATGCCCGGC	1.02 ± 0.11
AATGCCGGCC	1.08 ± 0.028
AATGCGGGGG	1 ± 0.025
AATGCGTTCG	0.99211 ± 0.00042
AATGCTCTTC	0.973 ± 0.04
AATGCTTGGG	1.0044 ± 8.7e-05
AATGGAAATT	0.996 ± 0.063
AATGGCCGCG	1.08 ± 0.11
AATGGCGGCA	1.06 ± 0.078

Sequence	switch fluorescence ratio
AATGGCGGGA	1.021 ± 0.0015
AATGGCGTAT	1.02 ± 0.029
AATGGCTAGG	1.01 ± 0.014
AATGGGAAGA	0.9987 ± 0.0043
AATGGGATGT	0.981 ± 0.017
AATGGGGATG	0.998 ± 0.058
AATGGGGGCG	0.9633 ± 0.0089
AATGGGGGCT	1.02 ± 0.022
AATGGGGGGG	0.998 ± 0.034
AATGGGGTAA	0.995 ± 0.014
AATGGGGTCA	0.991 ± 0.024
AATGGGTTGG	0.9875 ± 0.0082
AATGGTCGGC	0.996 ± 0.011
AATGGTCTCG	0.9842 ± 0.006
AATGGTGAGG	1.05 ± 0.051
AATGGTGGCC	1 ± 0.018
AATGGTGTGG	0.995 ± 0.014
AATGGTTTTT	0.991 ± 0.031
AATGTAAGGA	1.03 ± 0.065
AATGTAAGTT	0.975 ± 0.025
AATGTAGGGA	1.06 ± 0.051
AATGTAGTTT	0.993 ± 0.032
AATGTCGGGC	1.02 ± 0.022
AATGTCTCAG	1.014 ± 0.0091
AATGTCTGGG	0.9982 ± 0.0018

Sequence	switch fluorescence ratio
AATGTGAATG	0.992 ± 0.021
AATGTGACAT	0.982 ± 0.033
AATGTGAGCT	1.04 ± 0.043
AATGTGCAGT	0.9627 ± 0.0043
AATGTGTTGG	0.984 ± 0.025
AATGTTAGGA	0.974 ± 0.017
AATGTTGGGA	0.995 ± 0.015
AATGTTGGTG	0.998 ± 0.018
AATGTTTGTA	0.9936 ± 0.0094
AATTAAAAAT	0.987 ± 0.017
AATTAACGGC	1.07 ± 0.083
AATTAAGGCA	0.9756 ± 0.0065
AATTAATATT	0.988 ± 0.021
AATTACCTCG	1.04 ± 0.043
AATTAGACGA	0.958 ± 0.034
AATTAGATTT	1.021 ± 0.0055
AATTAGGGGT	1.01 ± 0.02
AATTAGTGTG	0.987 ± 0.022
AATTAGTTGC	0.989 ± 0.016
AATTATAATG	1.034 ± 0.0047
AATTATCGGC	0.998 ± 0.049
AATTATGTAA	0.988 ± 0.036
AATTATTGTA	0.979 ± 0.049
AATTCAGCAT	1.03 ± 0.036
AATTCCCTTT	0.9946 ± 0.0012

Sequence	switch fluorescence ratio
AATTCCTCAG	1.43 ± 0.1
AATTCCTCAT	1.04 ± 0.024
AATTCCTTGG	0.984 ± 0.034
AATTCTCTGT	1.03 ± 0.066
AATTGAACGG	0.9995 ± 0.0042
AATTGAAGGG	0.996 ± 0.015
AATTGACGTA	1.021 ± 0.0069
AATTGAGTGG	1.009 ± 0.0077
AATTGATAGG	0.982 ± 0.041
AATTGGAGGG	1 ± 0.029
AATTGGCTTA	0.997 ± 0.027
AATTGGGCGA	0.989 ± 0.026
AATTGGGCGC	1.01 ± 0.011
AATTGGGGGT	0.992 ± 0.038
AATTGGGTAT	1.0014 ± 0.00066
AATTGGGTGC	1.09 ± 0.12
AATTGGTCGT	0.965 ± 0.043
AATTGTAAGA	0.992 ± 0.025
AATTGTAGGT	0.9731 ± 0.0046
AATTGTAGTA	0.996 ± 0.051
AATTGTTCGT	0.98 ± 0.036
AATTGTTGTC	0.985 ± 0.01
AATTTCGCTT	1 ± 0.037
AATTTCTGGG	1.06 ± 0.058
AATTTGACCC	0.9966 ± 0.0026

Sequence	switch fluorescence ratio
AATTTGATTC	1.02 ± 0.058
AATTTGGTTT	1.02 ± 0.021
AATTTGTAGG	1 ± 0.02
AATTTGTGTT	0.992 ± 0.01
AATTTTAACA	1 ± 0.016
AATTTTACGG	1.07 ± 0.024
AATTTTAGTA	1.02 ± 0.019
AATTTTAGTC	0.994 ± 0.04
AATTTTCAGA	1.03 ± 0.019
AATTTTGGTG	0.998 ± 0.047
AATTTTTAGT	0.981 ± 0.024
AATTTTTCGC	0.98 ± 0.024
AATTTTTGAG	0.988 ± 0.024
AATTTTTGTT	1 ± 0.029
ACAAATTGTT	1.09 ± 0.069
ACAACCAGGA	1.737 ± 0.00071
ACAACCGGGG	1.37 ± 0.029
ACAACGCGT	0.982 ± 0.013
ACAAGACTTA	1.04 ± 0.018
ACAAGATCGG	1.0072 ± 0.00016
ACAAGGGAAG	0.988 ± 0.015
ACAAGTGGAC	1.033 ± 0.0026
ACAAGTGTGC	1.04 ± 0.018
ACAAGTTTAA	0.997 ± 0.025
ACAATAATAT	1 ± 0.028

Sequence	switch fluorescence ratio
ACAATCTCTT	1.02 ± 0.025
ACAATGCTTT	1.03 ± 0.017
ACAATTGATG	1 ± 0.04
ACACAGGCTA	1.027 ± 0.005
ACACAGTGCT	1 ± 0.011
ACACTTAAGT	1.02 ± 0.029
ACACTTGCCA	1.09 ± 0.019
ACAGAAATGG	1.014 ± 0.0011
ACAGACCTAA	1.14 ± 0.013
ACAGACTCGC	1.01 ± 0.019
ACAGACTGAA	1.16 ± 0.019
ACAGATACAG	1.07 ± 0.025
ACAGATGGAA	1.005 ± 0.0068
ACAGATGGGG	1.01 ± 0.015
ACAGATTAGT	1 ± 0.024
ACAGCAGGGC	1.07 ± 0.07
ACAGCTGTTA	1.02 ± 0.019
ACAGGACTTA	1.09 ± 0.021
ACAGGAGGGG	1.04 ± 0.018
ACAGGATACA	1.14 ± 0.078
ACAGGGAGGG	1.02 ± 0.015
ACAGGGGCGG	1.008 ± 0.006
ACAGGGGGAA	1.01 ± 0.024
ACAGGGGTGT	1.09 ± 0.014
ACAGGTACAT	1.12 ± 0.034

Sequence	switch fluorescence ratio
ACAGTACTTG	1.292 ± 0.0098
ACAGTACTTT	1.26 ± 0.019
ACAGTAGTAG	1.07 ± 0.026
ACAGTGTGTT	0.979 ± 0.018
ACAGTTAATA	1.06 ± 0.018
ACAGTTATTC	1.02 ± 0.048
ACAGTTGGGT	1.002 ± 0.0047
ACATAAAAGG	0.994 ± 0.021
ACATACATTG	1.27 ± 0.061
ACATAGGTCA	1.02 ± 0.022
ACATAGGTGA	1.1 ± 0.069
ACATAGTTTG	0.9892 ± 0.0034
ACATATAGAG	1.051 ± 0.0097
ACATCGGATG	0.995 ± 0.025
ACATCGGGAT	1.017 ± 0.0012
ACATCGGTTC	1.02 ± 0.029
ACATCTATTC	1.01 ± 0.034
ACATGACAGA	1.08 ± 0.038
ACATGACATG	1.04 ± 0.03
ACATGAGAAA	0.988 ± 0.052
ACATGCTGTA	0.995 ± 0.024
ACATGGGGA	1.002 ± 0.0018
ACATGGGGTT	0.998 ± 0.03
ACATGTAGCG	0.99 ± 0.021
ACATGTGGCA	1.04 ± 0.018

Sequence	switch fluorescence ratio
ACATTAACTA	1.09 ± 0.019
ACATTCATCG	1.06 ± 0.034
ACATTCCTGT	1.05 ± 0.046
ACATTCTGGA	0.988 ± 0.031
ACATTGAGGT	1.01 ± 0.048
ACATTGTTTT	1.02 ± 0.021
ACATTTATCT	1.02 ± 0.02
ACATTTATGG	0.999 ± 0.021
ACATTTGGGT	1.0104 ± 0.00044
ACATTTTTAT	1.03 ± 0.015
ACATTTTTTT	1.01 ± 0.029
ACCAAACCGG	1.039 ± 0.0079
ACCAAAGGCG	1.04 ± 0.043
ACCAACCGTG	1.1028 ± 0.00051
ACCACGTGAC	1.51 ± 0.035
ACCAGCGAAT	1.06 ± 0.043
ACCAGCTTTT	1.04 ± 0.03
ACCAGGTGTG	3.53 ± 0.34
ACCAGTAGGT	1.01 ± 0.035
ACCATACTGT	1.33 ± 0.055
ACCATATTTG	1.04 ± 0.058
ACCATATTTT	1.073 ± 0.0094
ACCATCCGGC	1.12 ± 0.012
ACCATTACAC	1.24 ± 0.024
ACCATTAGCA	0.998 ± 0.022
